Patent US20250353894A1 (UNIVERSITAT ULM, published 2025)

B1: DAF(1-4)FH(19-20)CR1(15-17) (other)
chain: DCGLPPDVPNAQPALEGRTSFPEDTVITYKCEESFVKIPGEKDSVICLKGSQWSDIEEFCQRSCEVPTRLNSASLKQPYITQNYFPVGTVVEYECRPGYRREPSLSPKLTCLQNLKWSTAVEFCKKKSCPNPGEIRNGQIDVPGGILFGATISFSCNTGYKLFGSTSSFCLISGSSVQWSDPLPECREIYCPAPPQIDNGIIQGERDHYGYRQSVTYACNKGFTMIGEHSIYCTVNNDEGEWSGPPPECRGGGGGGGGGGGGGGGKCGPPPPIDNGDITSFPLSVYAPASSVEYQCQNLYQLEGNKRITCRNGQWSEPPKCLHPCVISREIMENYNIALRWTAKQKLYSRTGESVEFVCKRGYRLSSRSHTLRTTCWDGKLEYPTCAGGGGGGGHCQAPDHFLFAKLKTQTQASDFPIGTSLKYECRPEYYGRPFSITCLDNLVWSSPKDVCKRKSCKTPPDPVNGMVHVITDIQVGSRIQYSCTTGHRLIGHSSAECILSGNTAHWSTKPPICQRIPCGLPPTIANGDFISTNRENFHYGSVVTYRCNLGSRGRKVFELVGEPSIYCTSNDDQVGIWSGPAPQCII
notes: Multi-domain fusion polypeptide produced in Pichia pastoris; also called triple I; triple-I
B2: CR1(1-3)FH(19-20)CR1(15-17) (other)
chain: QCNAPEWLPFARPTQLTDEFEFPIGTYLNYECRPGYSGRPFSIICLKNSVWTGAKDRCRRKSCRNPPDPVNGMVHVIKGIQFGSQIKYSCTKGYRLIGSSSATCIISGDTVIWDQETPICDRIPCGLPPTITNGDFISTNRENFHYGSVVTYRCNPGSGGRKVFELVGEPSIYCTSNDDQVGIWSGPAPQCIIGGGGGGGGGGGGGGKCGPPPPIDNGDITSFPLSVYAPASSVEYQCQNLYQLEGNKRITCRNGQWSEPPKCLHPCVISREIMENYNIALRWTAKQKLYSRTGESVEFVCKRGYRLSSRSHTLRTTCWDGKLEYPTCAGGGGGGGHCQAPDHFLFAKLKTQTQASDFPIGTSLKYECRPEYYGRPFSITCLDNLVWSSPKDVCKRKSCKTPPDPVNGMVHVITDIQVGSRIQYSCTTGHRLIGHSSAECILSGNTAHWSTKPPICQRIPCGLPPTIANGDFISTNRENFHYGSVVTYRCNLGSRGRKVFELVGEPSIYCTSNDDQVGIWSGPAPQCII
notes: Multi-domain fusion polypeptide produced in Pichia pastoris
B3: DAF(1-4) (other)
chain: DCGLPPDVPNAQPALEGRTSFPEDTVITYKCEESFVKIPGEKDSVICLKGSQWSDIEEFCQRSCEVPTRLNSASLKQPYITQNYFPVGTVVEYECRPGYRREPSLSPKLTCLQNLKWSTAVEFCKKKSCPNPGEIRNGQIDVPGGILFGATISFSCNTGYKLFGSTSSFCLISGSSVQWSDPLPECREIYCPAPPQIDNGIIQGERDHYGYRQSVTYACNKGFTMIGEHSIYCTVNNDEGEWSGPPPECR
notes: Produced in Pichia pastoris; also called soluble DAF; sDAF
B4: DAF(1-4)FH(19-20) long linker (other)
chain: DCGLPPDVPNAQPALEGRTSFPEDTVITYKCEESFVKIPGEKDSVICLKGSQWSDIEEFCQRSCEVPTRLNSASLKQPYITQNYFPVGTVVEYECRPGYRREPSLSPKLTCLQNLKWSTAVEFCKKKSCPNPGEIRNGQIDVPGGILFGATISFSCNTGYKLFGSTSSFCLISGSSVQWSDPLPECREIYCPAPPQIDNGIIQGERDHYGYRQSVTYACNKGFTMIGEHSIYCTVNNDEGEWSGPPPECRGGGGGGGGGGGGGGGKCGPPPPIDNGDITSFPLSVYAPASSVEYQCQNLYQLEGNKRITCRNGQWSEPPKCLHPCVISREIMENYNIALRWTAKQKLYSRTGESVEFVCKRGYRLSSRSHTLRTTCWDGKLEYPTCA
notes: Fusion protein with an oligo-glycine linker; also called DAF(1-4)FH(19-20)-LL
B5: DAF(1-4)FH(19-20) short linker (other)
chain: DCGLPPDVPNAQPALEGRTSFPEDTVITYKCEESFVKIPGEKDSVICLKGSQWSDIEEFCNRSCEVPTRLNSASLKQPYITQNYFPVGTVVEYECRPGYRREPSLSPKLTCLQNLKWSTAVEFCKKKSCPNPGEIRNGQIDVPGGILFGATISFSCNTGYKLFGSTSSFCLISGSSVQWSDPLPECREIYCPAPPQIDNGIIQGERDHYGYRQSVTYACNKGFTMIGEHSIYCTVNNDEGEWSGPPPECRGPGGGKCGPPPPIDNGDITSFPLSVYAPASSVEYQCQNLYQLEGNKRITCRNGQWSEPPKCLHPCVISREIMENYNIALRWTAKQKLYSRTGESVEFVCKRGYRLSSRSHTLRTTCWDGKLEYPTCAKR
notes: Fusion protein; the two domains are joined directly; also called DAF(1-4)FH(19-20)-SL
B6: CR1(15-17) (receptor)
chain: not shown
notes: Produced in Pichia pastoris; also called CCPs 15 to 17 of human CR1
B7: FH(19-20) (other)
chain: KCGPPPPIDNGDITSFPLSVYAPASSVEYQCQNLYQLEGNKRITCRNGQWSEPPKCLHPCVISREIMENYNIALRWTAKQKLYSRTGESVEFVCKRGYRLSSRSHTLRTTCWDGKLEYPTCA
notes: also called CCPs 19 and 20 of Factor H

molecular target: T1, complement protein C3b (UniProt P01024 749-1663; P01024 23-667); assay: not named in the sentence (SPR on C3b by Table 1)
T1 construct: also called factor C3b
T1 sequence (P01024 749-1663 limits assumed, chain 1 of 2): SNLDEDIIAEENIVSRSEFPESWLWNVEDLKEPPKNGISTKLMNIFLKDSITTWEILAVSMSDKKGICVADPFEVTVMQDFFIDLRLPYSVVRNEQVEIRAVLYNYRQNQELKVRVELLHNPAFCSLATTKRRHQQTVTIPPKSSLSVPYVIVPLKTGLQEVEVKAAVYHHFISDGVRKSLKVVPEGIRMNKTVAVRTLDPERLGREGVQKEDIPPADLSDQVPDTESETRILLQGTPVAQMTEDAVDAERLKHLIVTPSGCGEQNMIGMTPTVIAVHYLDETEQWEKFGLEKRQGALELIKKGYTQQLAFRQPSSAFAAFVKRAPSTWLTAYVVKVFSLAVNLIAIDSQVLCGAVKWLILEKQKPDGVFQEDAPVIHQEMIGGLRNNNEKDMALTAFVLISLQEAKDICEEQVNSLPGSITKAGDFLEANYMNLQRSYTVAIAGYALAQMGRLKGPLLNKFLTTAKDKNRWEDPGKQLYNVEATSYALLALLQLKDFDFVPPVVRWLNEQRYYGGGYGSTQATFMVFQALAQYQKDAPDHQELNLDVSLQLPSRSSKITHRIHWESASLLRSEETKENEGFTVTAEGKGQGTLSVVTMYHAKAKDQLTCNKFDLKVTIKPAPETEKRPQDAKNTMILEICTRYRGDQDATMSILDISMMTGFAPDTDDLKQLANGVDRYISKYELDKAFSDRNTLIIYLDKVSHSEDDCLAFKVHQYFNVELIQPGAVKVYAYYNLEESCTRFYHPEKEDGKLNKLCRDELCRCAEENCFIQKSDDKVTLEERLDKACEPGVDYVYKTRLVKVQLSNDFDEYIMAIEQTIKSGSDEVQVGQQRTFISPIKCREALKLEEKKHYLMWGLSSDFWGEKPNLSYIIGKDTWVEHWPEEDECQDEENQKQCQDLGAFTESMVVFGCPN
T1 sequence (P01024 23-667 limits assumed, chain 2 of 2): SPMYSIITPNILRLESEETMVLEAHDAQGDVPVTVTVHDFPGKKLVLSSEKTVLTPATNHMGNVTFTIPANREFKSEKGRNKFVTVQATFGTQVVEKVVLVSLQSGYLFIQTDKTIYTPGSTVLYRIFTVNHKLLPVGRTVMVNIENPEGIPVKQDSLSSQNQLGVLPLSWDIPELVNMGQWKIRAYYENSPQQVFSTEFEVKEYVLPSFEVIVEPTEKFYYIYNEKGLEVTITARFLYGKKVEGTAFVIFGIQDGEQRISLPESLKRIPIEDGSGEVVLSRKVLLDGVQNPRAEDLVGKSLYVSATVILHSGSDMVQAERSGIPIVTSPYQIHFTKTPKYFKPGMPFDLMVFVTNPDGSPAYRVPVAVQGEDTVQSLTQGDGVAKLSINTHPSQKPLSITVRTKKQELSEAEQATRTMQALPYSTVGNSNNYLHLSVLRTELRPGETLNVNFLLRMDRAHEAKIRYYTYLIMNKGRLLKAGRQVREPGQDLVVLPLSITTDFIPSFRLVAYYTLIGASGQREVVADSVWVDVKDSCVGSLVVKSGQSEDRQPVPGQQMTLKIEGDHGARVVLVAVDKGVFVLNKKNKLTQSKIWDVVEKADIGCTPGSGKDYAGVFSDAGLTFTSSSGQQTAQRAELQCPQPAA
Experimental: (§1) A surface plasmon resonance (SPR)-based assay (Schmidt et al. (2013), Journal of Immunology 190:5712-5721) was used to determine the affinity of the engineered complement inhibitors for the key complement protein C3b. 1940 response units […] of C3b were coupled to the chip. The samples were run at 25 μl/min in a concentration series with the highest and the lowest concentrations being assayed in duplicate to probe reproducibility. To get an estimation of the KD value for other proteins the plot of response (during steady state) against the assayed concentration was fitted to a 1:1 steady state affinity model.

Kd | Binder
20 nM | B1
40 nM | B2

molecular target: T1, complement protein C3b; assay: SPR, C3b coupled to chip, 1:1 steady state affinity model
Experimental: as §1

Kd | Binder
11500 nM | B3
175 nM | B4
125 nM | B5
22.8 nM | B1
954 nM | B6
4670 nM | B7
40.6 nM | B2
